Two molecules from patent US20200231681A1 can be followed below.

Where “and” joins values, the source holds several entries; their conditions need not be identical. Equal entries are not always repeated.

The target of assay [1] is human FGF R3 (IIIc) Fc chimera (R&D systems, 766-FR) (human) (UniProt P22607). Description: indirect ELISA, hu8C4 at 0.002 nM. On the technique in general: ELISA stands for enzyme-linked immunosorbent assay.
For assay [2] the target is unchanged. Kind of assay: indirect ELISA, hu8C4 at 30.000 nM.
For assay [3] the target is unchanged. Description: indirect ELISA, hu8C4 at 0.010 nM.
The target is the same in assay [4]. Kind of assay: indirect ELISA, hu8C4 at 0.048 nM.
In assay [5] the target is c-Met receptor on human tumor cells (MKN45, NCI-H820, HCC827) (human) (UniProt P08581). Kind of assay: flow cytometry on MKN45 cells, (MFI 37° C. - IgG)/(MFI 4° C. - IgG) x 100. (A flow cytometer gives signals particle by particle.)
Assay [6] has the same target. Description: flow cytometry on MKN45 cells, 100 nM antibody, 4° C. 1 hour (not internalized), anti-human kappa LC-FITC.
Assay [7] shares this target. Description: flow cytometry on MKN45 cells, 100 nM antibody overnight at 37° C., antibody left on the surface, anti-human kappa LC-FITC.

c-Met receptor on human tumor cells (MKN45, NCI-H820, HCC827) (human), sequence (P08581 25-1390): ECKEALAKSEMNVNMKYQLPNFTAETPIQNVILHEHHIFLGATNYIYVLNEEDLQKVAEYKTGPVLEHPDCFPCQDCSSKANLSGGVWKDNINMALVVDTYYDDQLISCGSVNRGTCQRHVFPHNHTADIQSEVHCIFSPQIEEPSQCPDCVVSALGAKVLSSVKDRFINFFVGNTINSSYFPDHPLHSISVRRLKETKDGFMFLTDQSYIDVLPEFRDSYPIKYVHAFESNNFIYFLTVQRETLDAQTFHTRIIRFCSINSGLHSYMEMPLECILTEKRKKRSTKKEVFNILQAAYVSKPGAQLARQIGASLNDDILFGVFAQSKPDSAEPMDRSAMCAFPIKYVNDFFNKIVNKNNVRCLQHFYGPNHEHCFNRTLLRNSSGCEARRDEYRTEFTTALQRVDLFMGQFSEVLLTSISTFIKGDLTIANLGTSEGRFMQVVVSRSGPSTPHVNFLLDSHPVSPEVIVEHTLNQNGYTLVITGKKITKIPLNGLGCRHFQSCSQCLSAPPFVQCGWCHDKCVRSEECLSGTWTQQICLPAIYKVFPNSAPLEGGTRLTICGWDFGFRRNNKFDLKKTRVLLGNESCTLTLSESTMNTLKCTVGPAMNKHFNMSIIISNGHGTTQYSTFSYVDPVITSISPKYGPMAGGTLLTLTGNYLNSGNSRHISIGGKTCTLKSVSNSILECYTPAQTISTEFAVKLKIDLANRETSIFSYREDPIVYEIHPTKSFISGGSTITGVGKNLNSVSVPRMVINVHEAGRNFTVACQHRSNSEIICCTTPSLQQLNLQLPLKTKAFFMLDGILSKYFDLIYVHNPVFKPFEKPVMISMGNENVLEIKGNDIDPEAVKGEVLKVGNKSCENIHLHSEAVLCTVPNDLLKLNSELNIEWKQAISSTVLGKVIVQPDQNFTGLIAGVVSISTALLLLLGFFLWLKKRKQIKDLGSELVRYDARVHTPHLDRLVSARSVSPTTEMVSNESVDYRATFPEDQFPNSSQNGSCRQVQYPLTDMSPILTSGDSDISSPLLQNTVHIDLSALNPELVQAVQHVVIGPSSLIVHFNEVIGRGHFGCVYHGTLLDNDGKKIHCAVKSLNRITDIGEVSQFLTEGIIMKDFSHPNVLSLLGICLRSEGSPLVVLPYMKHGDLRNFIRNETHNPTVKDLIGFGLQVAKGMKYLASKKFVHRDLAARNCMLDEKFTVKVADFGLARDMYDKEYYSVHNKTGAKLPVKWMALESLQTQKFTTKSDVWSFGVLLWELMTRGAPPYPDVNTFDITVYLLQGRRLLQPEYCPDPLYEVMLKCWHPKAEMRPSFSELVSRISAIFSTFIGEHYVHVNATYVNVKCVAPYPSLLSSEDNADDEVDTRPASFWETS

B1: hu8C4 (IgG1 humanized antibody having a hinge region of SEQ ID NO: 38 in hu8C4-1) (antibody, V domains shown)
VH: EVQLVESGGGLVQPGGSLRLSCAASGYTFSDYYINWVRQAPGKGLEWIGEIFPGSGNTHFSARFKGRATLSADKSKNTAYLQMNSLRAEDTAVYYCAGGDYGFLYWGQGTLVTVSS
VL: DIQMTQSPSSLSASVGDRVTITCGASENIYGALNWYQQKPGKAPKLLIYGATNLADGVPSRFSGSGSGRDFTFTISSLQPEDIATYYCQNVLSSPYTFGQGTKVEIK
Regarding B1, the A450 nm-A570 nm (A450 nm-A570 nm) in assay [1] was 0; in assay [2], 0.01 and 0.02; in assay [3], 0; in assay [4] it was 0.

B2: OA-5D5 (Genentech) (antibody, INN chains, looked up, V domains shown)
VH: EVQLVESGGGLVQPGGSLRLSCAASGYTFTSYWLHWVRQAPGKGLEWVGMIDPSNSDTRFNPNFKDRFTISADTSKNTAYLQMNSLRAEDTAVYYCATYRSYVTPLDYWGQGTLVTVSS
VL: DIQMTQSPSSLSASVGDRVTITCKSSQSLLYTSSQKNYLAWYQQKPGKAPKLLIYWASTRESGVPSRFSGSGSGTDFTLTISSLQPEDFATYYCQQYYAYPWTFGQGTKVEIK
modifications: one-armed
Consider B2, for which the Surface bound Ab(%) in assay [5] was determined as 98%. The FITC MFI [4° C. control] (FITC geo-mean (MFI)) in assay [6] was 1760. The FITC MFI [37° C. exp.] (FITC geo-mean (MFI)) in assay [7] was 1720.
